According to patent publication US20260146077A1 (US Dept. of Health and Human Services, published 2026):
Changes are numbered by the printed parent chain.

B1: A23-58.1HC/58.1LC_94GLT (antibody, V domains shown)
VH: not shown
VL: EIVLTQSPGTLSLSPGERATLSCRASQSVSSSYLAWYQQKPGQAPRLLIYSASSRATGIPDRFSGSGSGTDFTLTISRLEPEDFAVYFCQQYGGLTWTFGQGTKVEIK
B2: A23-58.1HC/58.1LC_94GLTG (antibody, V domains shown)
VH: not shown
VL: EIVLTQSPGTLSLSPGERATLSCRASQSVSSSYLAWYQQKPGQAPRLLIYSASSRATGIPDRFSGSGSGTDFTLTISRLEPEDFAVYFCQQYGGLTGWTFGQGTKVEIK
B3: A23-58.1HC/58.1LC_93VGLTG (antibody, V domains shown)
VH: not shown
VL: B2 VL with G93V
B4: A23-58.1HC_Y100cA/S2E12LC (antibody, V domains shown)
VH: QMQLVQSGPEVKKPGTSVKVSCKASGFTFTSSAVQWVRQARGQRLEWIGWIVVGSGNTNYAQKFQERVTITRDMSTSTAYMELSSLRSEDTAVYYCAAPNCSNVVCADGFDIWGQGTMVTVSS
VL: B2 VL with E1D, S7T, S51G, F88Y, G93V
B5: B1-182.1HC/S2E12LC (antibody, V domains shown)
VH: not shown
VL: B2 VL with E1D, S7T, S51G, F88Y, G93V
B6: B1-182.1HC_F100cS/S2E12LC (antibody, V domains shown)
VH: not shown
VL: B2 VL with E1D, S7T, S51G, F88Y, G93V
B7: S2E12 (antibody, V domains shown)
VH: not shown
VL: B2 VL with E1D, S7T, S51G, F88Y, G93V

target: T1, SARS-CoV-2 spike protein, BA.1 (SARS-CoV-2, UniProt P0DTC2 14-1273); experiment: cell-based or functional assay

First: B1
Second: B2
The “BA.1 neutralization, fold improvement over A19-58.1” value of the first is lower: 7 fold for the first, > 27 fold for the second.

Compared with B3, B4 is lower in “BA.1 neutralization, fold improvement over A19-58.1” value: > 30 fold for the first, 20 fold for the second.

Going from B1 to B7, the “pseudovirus neutralization IC50” value falls from 13.7 ng/mL to 8.8 ng/mL (1.6-fold).

B5 and B6 cannot be ordered by “BA.1 neutralization, fold improvement over B1-182.1” value: 20 fold for the first, > 14 fold for the second.

For B7, the “fold loss in neutralization” value was < 10 fold loss.

target: T2, SARS-CoV-2 spike protein, BA.2.12.1 (SARS-CoV-2, UniProt P0DTC2 14-1273); experiment: cell-based or functional assay

In the case of B1, the “pseudovirus neutralization IC50” value is reported as 25 ng/mL.

target: SARS-CoV-2 spike protein, B.1.617.2 (SARS-CoV-2, UniProt P0DTC2 14-1273); experiment: cell-based or functional assay

Compared with B2, B3 is 2-fold higher in “neutralization IC50” value: 2.9 ng/mL for the first, 5.8 ng/mL for the second.

First: B4
Second: B5
The “neutralization IC50” value of the first is 2.6-fold higher: 2.9 ng/mL for the first, 1.1 ng/mL for the second.

B6 and B7 are the same in “neutralization IC50” value: 1.2 ng/mL for the first, 1.2 ng/mL for the second.

B2 and B3 are within 1.5-fold of each other in “neutralization IC80” value: 11.2 ng/mL for the first, 12.4 ng/mL for the second.

Compared with B4, B5 is 2.7-fold lower in “neutralization IC80” value: 7.8 ng/mL for the first, 2.9 ng/mL for the second.

B6 and B7 are within 1.5-fold of each other in “neutralization IC80” value: 3.3 ng/mL for the first, 2.6 ng/mL for the second.

target: SARS-CoV-2 spike protein, B.1.351 (SARS-CoV-2, UniProt P0DTC2 14-1273); experiment: cell-based or functional assay

Compared with B2, B3 is 1.5-fold higher in “neutralization IC50” value: 1.8 ng/mL for the first, 2.7 ng/mL for the second.

First: B4
Second: B5
The “neutralization IC50” value of the first is 3.2-fold higher: 2.6 ng/mL for the first, 0.8 ng/mL for the second.

First: B6
Second: B7
The “neutralization IC50” value of the first is 2.6-fold lower: 1.5 ng/mL for the first, 3.9 ng/mL for the second.

B2 and B3 are within 1.5-fold of each other in “neutralization IC80” value: 4.4 ng/mL for the first, 5 ng/mL for the second.

B4 and B5 are within 1.5-fold of each other in “neutralization IC80” value: 5.9 ng/mL for the first, 4.4 ng/mL for the second.

First: B6
Second: B7
The “neutralization IC80” value of the first is 2-fold lower: 4.4 ng/mL for the first, 8.7 ng/mL for the second.

target: T1, SARS-CoV-2 spike protein, BA.1; experiment: cell-based or functional assay; remark: another data set of the same source

Going from B1 to B2, the “neutralization IC80” value falls from 46.4 ng/mL to 11.9 ng/mL (3.9-fold).

Going from B3 to B4, the “neutralization IC80” value rises from 11.2 ng/mL to 26.1 ng/mL (2.3-fold).

B5 and B6 are within 1.5-fold of each other in “neutralization IC80” value: 45.2 ng/mL for the first, 51.6 ng/mL for the second.

With B7 the “neutralization IC80” value was 38.5 ng/mL.

B2 and B3 are within 1.5-fold of each other in “neutralization IC50” value: 3.6 ng/mL for the first, 3.3 ng/mL for the second.

First: B4
Second: B5
The “neutralization IC50” value of the first is 2-fold lower: 4.9 ng/mL for the first, 9.9 ng/mL for the second.

With B6 the “neutralization IC50” value was 13.9 ng/mL.

target: SARS-CoV-2 spike protein, BA.1.1 (SARS-CoV-2, UniProt P0DTC2 14-1273); experiment: cell-based or functional assay

B4 and B5 are within 1.5-fold of each other in “neutralization IC50” value: 4.4 ng/mL for the first, 4.7 ng/mL for the second.

Compared with B6, B7 is 1.8-fold higher in “neutralization IC50” value: 8.4 ng/mL for the first, 15.5 ng/mL for the second.

Going from B4 to B5, the “neutralization IC80” value rises from 13.1 ng/mL to 24.2 ng/mL (1.8-fold).

Compared with B6, B7 is 2.8-fold higher in “neutralization IC80” value: 20 ng/mL for the first, 55.4 ng/mL for the second.

target: BA.2.75; experiment: cell-based or functional assay

B2 and B3 are within 1.5-fold of each other in “neutralization IC50” value: 1 ng/mL for the first, 0.9 ng/mL for the second.

B2 and B3 are within 1.5-fold of each other in “neutralization IC80” value: 3.1 ng/mL for the first, 3 ng/mL for the second.

target: BA.4.6; experiment: cell-based or functional assay

B2 and B3 are within 1.5-fold of each other in “neutralization IC50” value: 4.2 ng/mL for the first, 4.1 ng/mL for the second.

B2 and B3 are within 1.5-fold of each other in “neutralization IC80” value: 15.7 ng/mL for the first, 14.8 ng/mL for the second.

target: SARS-CoV-2 spike protein, BA.2 (SARS-CoV-2, UniProt P0DTC2 14-1273); experiment: cell-based or functional assay

B4 and B5 are within 1.5-fold of each other in “neutralization IC50” value: 8.4 ng/mL for the first, 6.3 ng/mL for the second.

B6 and B7 are within 1.5-fold of each other in “neutralization IC50” value: 9.4 ng/mL for the first, 9.9 ng/mL for the second.

B4 and B5 are within 1.5-fold of each other in “neutralization IC80” value: 38.4 ng/mL for the first, 28 ng/mL for the second.

Compared with B6, B7 is 1.5-fold higher in “neutralization IC80” value: 31.7 ng/mL for the first, 48.2 ng/mL for the second.

target: T2, SARS-CoV-2 spike protein, BA.2.12.1; experiment: cell-based or functional assay; remark: another data set of the same source

Compared with B1, B2 is 11-fold lower in “neutralization IC80” value: 105 ng/mL for the first, 9.2 ng/mL for the second.

First: B3
Second: B4
The “neutralization IC80” value of the first is 12-fold lower: 11.5 ng/mL for the first, 142 ng/mL for the second.

Going from B5 to B6, the “neutralization IC80” value rises from 35 ng/mL to 54.2 ng/mL (1.5-fold).

In the case of B7, the “neutralization IC80” value is reported as 46.6 ng/mL.

Going from B2 to B3, the “neutralization IC50” value rises from 1.9 ng/mL to 3.4 ng/mL (1.8-fold).

First: B4
Second: B5
The “neutralization IC50” value of the first is 3.1-fold higher: 35.1 ng/mL for the first, 11.5 ng/mL for the second.

B6 and B7 are within 1.5-fold of each other in “neutralization IC50” value: 14.9 ng/mL for the first, 15.6 ng/mL for the second.
